Measured values taken from paper PMC9729208, “Structural basis for the non-self RNA-activated protease activity of the type III-E CRISPR nuclease-protease Craspase”.

Columns and labels:
gRAMP;TPR-CHAT = gRAMP;TPR-CHAT (Candidatus Scalindua brodae;Candidatus …, UniProt A0A0B0EGF3;A0A0B0EKL4 1-1717;1-716, |); test: cryo-EM (2.6 A); Complex assembly at 1:1.2 (complex:target RNA), 5 mM EDTA, on ice 30 min; SEC in 20 mM Tris-HCl pH 8.0, 150 mM NaCl, 1 mM DTT; conditions: protein: recombinant;recombinant; tags: N-terminal His6;C-terminal Strep II; copies: 1;1; single strand; 35 nt modelled in 7Y80 and 7Y84
gRAMP = gRAMP (Candidatus Scalindua brodae, UniProt A0A0B0EGF3 1-1717); test: cryo-EM; Complex assembly at 1:1.2 (complex:target RNA), 5 mM EDTA, on ice 30 min; SEC in 20 mM Tris-HCl pH 8.0, 150 mM NaCl, 1 mM DTT; conditions: protein: recombinant; tags: N-terminal His6; single strand; 35 nt modelled in 7Y80 and 7Y84

B1: crRNA (ssRNA)
RNA: GACUUAAUGUCACGGUACCCAAUUUUCUGCCCCGGACUCCACGGCUGUUACUAGAG
binding result (gRAMP;TPR-CHAT): binds
binding result (gRAMP): binds
